Reference: the DeepSol protein solubility set

Assay: soluble on expression in E. coli; label from the status in PepcDB or PDB records

| Sequence | soluble on expression in E. coli |
| --- | --- |
| MSLTQVRQTDSGDSLETARPADLLVLLDSLRQREATLNAEVIDLQNTLNALQASGNTDQAALESAQARLAALSILVGAVGATGPGVMITIDDPGPGVAPEVMIDVINELRAAGAEAIQINDAHRSVRVGVDTWVVGVPGSLTVDTKVLSPPYSILAIGDPPTLAAAMNIPGGAQDGVKRVGGRMVVQQADRVDVTALRQPKQHQYAQPVKEGHHHHHH | soluble |
| MSLTRKKEDPGHSGRADRAARLSKASTHHAQHRQQPQRTRHERPRHAGHVAGKLYQLEVSEALISSVTDAVLDNVHAWQSRPLAAQRAENQRLIPD | soluble |
| MSLTRPPALSDVPDAAALPAVTAVEAMHCRIPFPSPLQLGKVHMTHRDYVLVRLLLADGGTGHAIGFERGMPLLDLVTRVAPFYVGRSPAMRAAARRAAEAATPPARAVLMRGISLLDIAMWDALARNKGLPLWALLGGARRRVPVMPVVGYGASAPAVAEQCRDLAGRGFRTVKVMIDGSDLAADAALLDAVRKALPDEVAFGIDAHWSWTTIADAMPTCRRAEELGAIFIEDPFLPQQWRTIAELQTQLRVPLAVGEDVIDRYGFRDLAEAARILRVDASVSGGVTGAIEALHLATIMDREVIPHVFPALHGQLAAAFPAARCVEMILPEVGADPVDRLFAEEARIEGGDLLVSETPGAAIAFDWDKARDFALRSERVGEGHHHHHH | soluble |
| MSLTSSQKDIINDILSAMQCYPENEAFIIDDKHYTYAQLGEITASITHSLSEIKDEKIGIVAENRIETYAAILAVLAGGKTYVILHPAYPEERNLKIAALAGLRTLLCTSDTDRSAFGTGHFRIIDTDRLPGKAQSEQQSHSSNEERNAYIIFTSGSTGEPKGVPITRANLNAFYRAYSLLDWNLDEHDRMLQMFELTFDVSVVSLLYPLTLGAAVYTVGHQDVKHFKVFELLEKYQLTFATVTPSLLQLLSPYFDEINLPSLKYLGVSAEASQTELLERFRKSVPNATFINLYGPTEATIYCTCYRIPASDKCKHYNGMVAIGKPFPGIRAIIADEEGNELPQGETGELWVSGRQVMKGYLDDPEKSALVLIHRPDGQIYYRTGDLCILDSDGDIIYCGRKDYQVKIQGFRIELSEIEYTAQSFFKTPCSVAAVPLLCDGICNELHLAVETTECTQSALIEYLKEKLPKYMLPKQIHCISQFPVTNSNKTDRKKIAELIKEGHHHHHH | soluble |
| MSLTTDTTSQTVLRSRKDVPSSDCWDTKSLYASREAWKKDLENLCGKEAPFWPHLNEKQFHIEQPSSLYKLLTEVFSIERTLEKLYVYAHLTHDEDISNQEATADLKSITYLLTSFSEEISWIQPALIALPQKISEELLTSPELQTYHFYLKKIFRLAPHTGTSREEKILASSSPALEVAYKTFSSLTDSEIPFGEAVDSEGKSHPLSHALSSLYMQSPDRELRKSAYQKQCQRYHGYRLSLANLLNGKIQAHLFNAKAHNYKSCLEAALFQNNISTSVVTTLIETVKQHTHLMTKYFQLKQKALGLPDFHFYDVYAPIAASEFARHYSYEEAVSLICDSLTPLGDNYVEALRKGLTSEGWVDKYENQNKRSGAYSSGCYDSKPYILMNYTGTLYDVSVVAHEGGHSMHSFLSHKHQQYHEAQYPIFLAEIASTLNETLLMEFLLKNAPSKEEKIAILSRSLDTIFATLFRQTLFADFELEAHSAAEQGIPLTEEFFSQSYKKLQHIFYGDCVTFDELSSIEWARIPHFYYNFYVYQYATGIIASLCFSEKILSKEAGAQEAYLTFLQSGGSDFPIEILKKSGLDMTSSAPMLKAFSYIERKLDELTNLLEGHHHHHH | soluble |
| MSLTTQLGLPDDIQACLFDLDGVVTRTAVVHAAAWKATFDTFLRERDGADFRPFTDSDYDQYVDGRPRADGVRSFLASRGVELPEGTPDDPPDARTVNGVGNRKNELLLEKIRTDGVEPYEGTLRYIDAVRAAGLATAIVSSSANTRDVLRSIDAERLFDVRIDGVVARERKLPGKPHPDTFLAAARDLGVEASRAAVFEDALAGMDAGRSGHFGYVVGVDRVGQTDALYAHGADRVVKDLAELGDHAEGHHHHHH | soluble |
| MSLTVFKSPITGRTYHLVFNDEFDDGVIDTLKWDTRSRRSPFTRRGMYQEKPYYVLCHEDWTKELHGELRLEVSKYPTQNNVVMTGGILSLGRFMARYGYYETKASFRDCIGEGYWPAFWIHFDEADKYGKGTEIDVFEYIPKDKQIFQTLHWYKKQAMEEQQSEVQHAALDYDKSGQFKEHRSSTKYFVLDEAQSKEHTFAVEWTPEELIFYTDGKVTRRVNRKDDPKQVPSAYQMVYFSCSAGEWGGNVMENQVPAYVYFDYCRCYQESDQDAIYTVKGNGMKVPASRRVGKEGHHHHHH | not soluble |
| MSLTVVQLTDIHFQWPYPYVTKKKLASIVEKVNEINPDFIFLTGDFISRYRTYNISKYNTETIAFYLGQLRAKRGIYAIQGNNDRCAGDMLLKAFKENGVRMLMNEGIIDDDISITGILSSKNIDICNTWLNQTKIPDAPLKILLSHQPDTALVTYPFFDLQFSGHTHGGQCIAPFGIGPILHPKMGHKFIVGVYKIGNMILHVSTGIGISPLPKPLVRFNNIAEVSVIRVVPEEGHHHHHH | not soluble |
| MSLTYDLIITDSHVMTPNGMVEKNIVIDSGKIKLITNDTPTCDKKIKGSGLVSIPGVIDPHVHYGVYSPIDQAAKTESHAAAIGGVTTMIRMFRLEGSYKDSLQKHLLASQNSHYIDYTIHASIFDTSQIDEMKYCTENQILSFKIYMNLGGDVGHVYMEMNPGEEKLISSHVNVTNELVEKIVKRAGELKCPVLVHAEDYQECACAMKTEQEKKHDGLNSWSESRSPDFEAKSIKTICEYGRKYDCVIYFVHIGSKLALEQIQIEKNNGTKIFVETCPHYLTLSHETQDGYLAKVMPPIRTKNDVEYVWESLQKNHINTIGTDHVANQLKLKLGGDDVWGALAGFPGIGTSLPILLSEGINKNRITLDQLVNLTSANTSKIFGLSDKGNISTGYEGHHHHHH | soluble |
| MSLTYILRRSQLLLIVSSYQLVHYLCSQLSSLKDASCMCAYILTTLYKDIDMELAEKDKGRDFTLRNARMDDIDQIIKINRLTLPENYPYYFFVEHLKEYGLAFFVAIVDNSVVGYIMPRIEWGFSNIKQLPSLVRKGHVVSIAVLEEYRRKGIATTLLEASMKSMKNDYNAEEIYLEVRVSNYPAIALYEKLNFKKVKVLKGYYADGEDAYLMARPLEGHHHHHH | not soluble |
| MSLVACECLPSPGLEPEPCSRARSQAHVYLEQIRNRVALGVPDMTKRDYLVDAATQIRLALERDVSEDYEAAFNHYQNGVDVLLRGIHVDPNKERREAVKLKITKYLRRAEEIFNCHLQRPLSSGASPSAVQLVQDPATGGTFVVKSLPRCHMVSRERLTIIPHGVPYMTKLLRYFVSEDSIFLHLEHVQGGTLWSHLLSQAHSRHSGLSSGSTQERMKAQLNPHLNLLTPARLPSGHAPGQDRIALEPPRTSPNLLLAGEAPSTRPQREAEGEPTARTSTSGSSDLPKAPGGHLHLQARRAGQNSDAGPPRGLTWVPEGAGPVLGGCGRGMDQSCLSADGAGRGCGRATWSVREEQVKQWAAEMLVALEALHEQGVLCRDLHPGNLLLDQAGHIRLTYFGQWSEVEPQCCGEAVDNLYSAPEVGGISELTEACDWWSFGSLLYELLTGMALSQSHPSGIQAHTQLQLPEWLSRPAASLLTELLQFEPTRRLGMGEGGVSKLKSHPFFSTIQWSKLVGTSLETHLRTLIHWLSGPKPDCPG | soluble |
| MSLVINAPFKVIASKVTAEVLKSVNSKLGSYSTNYATSSEARATNVAVATRSIDGKVVMPGETFSFNEVVGERTRARGYKEAGVIVNQKLESGFGGGVCQVSSTLYNALLRSNIKMTERVHHTFPSSYVPTGLDATVDWGNIDLKFKNTFKYPIYIQGYTGGREVGFNIYSNSELARTRCEITSEVYKKIEPRTEYINDSNLPAGAMEVVKSGHTGYRVKSYRSIYKDGKFVAKELIANDYYVPVNGVVKRGTREGHHHHHH | soluble |
| MSLVKIKEVAMNIKINEIKMTPPTAFTPGQVIEEQEVISPSMLALQELQETTGAALYETMEEIGMALSGKLRENYKFTDAEKLERRQQALLRLIKQIQEDNGATLRPLTEENSDPDLQNAYQIIALAMALTAGGLSKKKKRDLQSQLDTLTAEEGWELAVFSLLELGEVDTATLSSLKRFMQQAIDNDEMPLSQWFRRVADWPDRCERVRILLRAVAFELSICIEPSEQSRLAAALVRLRRLLLFLGLEKECQREEWICQLPPNTLLPLLLDIICERWLFSDWLLDRLTAIVSSSKMFNRLLQQLDAQFMLIPDNCFNDEDQREQILETLREVKINQVLFEGHHHHHH | soluble |
| MSLVKNEEKLLEVINKYELNSIFSQEIMPFLELHMFKKNEHICFMNEELNYLYFFVHGKAKVYKTLPNGKSLLLEFYEPVQLIGDLELISKIKANCNVKALKSSLCIAIPIQAVNSIALKDLNFLMYITKNLSNKLAKCSVTSSITITYPLETKLASYLLAMNSNNIIMIDNYSNLADLLGTSYRHLNRVLNKLVEKGIILKDKNEIKILNKEELENICVDLNEGHHHHHH | soluble |
| MSLVLDKLLYTGYNRLIDLGWRRSGHYLYKPNGKTSCCSLYTIRLDSYNFKIAKEQKKAIKKWVKYVNGKPLKPMKSEISTDYLNNAFQTIESLGAEKYSVTMEPCTYTDEKFEVFKKYQMQVHLEKEEEITKKGFSRFLCNSPLFNEDKGIKYGSYHQMYRFQGRLVAVGVLDLLPHGVSSVYLFYDPDMSKFSLGRISACREIWLALECGYRYYYMGYYIHTCPKMKYKATYSPSYLLNPGTNKWIPIENFTSLWNTGAPKYISFGDENNSDIQTAVDYDSSEDSSQNEDDYTLFNRQLPGILSVNVAESLVSENFANIGNSTFPTRHVLSYFPQVKHWFVEINAAVGEEVAKSYTLVLSSEGHHHHHH | not soluble |
| MSLVLMIVSGRSGSGKSVALRALEDMGFYCVDNLPVVLLPDLARSLADRNISAAVSIDVRNMPESPEIFEQAMQNLPECFSPQLLFLDADRNTLIRRYSDTRRLHPLSSKNLSLESAIDEESDLLEPLRSRADLIVDTSEMSVHELAEMLRTRLLGKRERELTMVFESFGFKHGIPIDADYVFDVRFLPNPHWDPKLRPMTGLDKPVAAFLDRHTEVHNFIYQTRSYLELWLPMLETNNRSYLTVAIGCTGGKHRSVYIAEQLADYFRSRGKNVQSRHRTLEKRKSEGGSHHHHHH | soluble |
| MSLVRDIKTFKFFEVLLIYEMLEVLKALAMMNATRKVVKISSKELAEHIGQSLQTAARKLKELEDEGLIDRTLTKDGQFVVITEKGKQLLYKEYMDYKKIFDDEGTIKIKGEVFSGVGEGRYYVSLEGYRKQFREKLGFDPYPGTLNLRIPKEEMYFRRRLDEERGILIEGFSTEDRTFGEVKAFKCRINGIEGAIVIPKRTHYPAEILEVISPVKLRDKLGLKDGDFVEVEVILEGHHHHHH | soluble |
| MSLVTIKDIARNLGISYSTVSRCLNNNPNVSEKTKKKVVEEANRLGFHFNVNARNLAKKETNRIGVIFSNNFNHQDTRKFFSDIMDSSINSIETNKYDFIIQPNNNISGDSNVYKMVNGQMVDGLVIVSQSIKKEEYDFLKDNNFPHVFIYFKPSFIGEVDNFFWDDNVYGGYIATKHLIDHGHKDIITVTSDDKSSKMHEDRTKGYLNAMEEANLKTEVIKSKMDFESQVEFLEKYIDKIKKASAIFVQQDVPAISIIQELKTTYGINVPEDISIIGYNNIELISYFRSHLSTIDDPREQVIKNGVDSLVNIINKKSTEHIPRKLYPRLIIRNSVKRIKEGHHHHHH | soluble |
| MSLWTIMIGSKNRAKVHALQEVVIRDKIIVRSEAVPSDVASQPFSDQETIQGAINRANHCLSFDGVDYGVGLEGGVVRSEYGLFLCNWGALVSQTGDQWVAGGARVPLPQEVAHELEGGKELGDIMESLTKNPDVRMTDGAIGYLTDGEISRKAMFQHVVHLLIGQARRDGHLLRTVTHEGHHHHHH | soluble |
| MSLYLEKYYYEKNIQEEFFKFLYSMTGKKEEIVVICIGDPVFEGNILAPLVGTLLHERNIPNVYGTLKEPVYEINIKEIYNKILKKYDNPYIILVASSFPVDFHDEREVIVLKNDPYEIQTASGSLKLGNASFIVVFDLEDSYCKVNFIEKLGIRKIYKYSEAIFKTLYYILHNKNYVKEGHHHHHH | soluble |
